From PMC8655068, “Quantitative proteomic screen identifies annexin A2 as a host target for Salmonella pathogenicity island-2 effectors SopD2 and PipB2” (Scientific Reports, 2021)

Target: T1, recombinant human His6-tagged annexin A2 (human, UniProt P07355 1-339)
T1 construct: annexin A2, human, recombinant; No catalogue number is printed; also called His6-AnxA2; His6-tagged AnxA2; source: bought: Novus Biologicals
Test: pull-down; about 20 µg concentrated culture supernatant (SPI-2 inducing conditions) mixed with 5 µg His6-annexin A2 overnight at 4 °C; Ni-Sepharose beads 2 h at room temperature; four washes in TBS-T (20 mM Tris-HCl, 150 mM NaCl, 0.75% Triton X-100); Western blot with anti-HA and anti-AnxA2; densitometry of 3 blots, with AnxA2 over without AnxA2
Conditions: one partner purified

T1 sequence (P07355 whole entry): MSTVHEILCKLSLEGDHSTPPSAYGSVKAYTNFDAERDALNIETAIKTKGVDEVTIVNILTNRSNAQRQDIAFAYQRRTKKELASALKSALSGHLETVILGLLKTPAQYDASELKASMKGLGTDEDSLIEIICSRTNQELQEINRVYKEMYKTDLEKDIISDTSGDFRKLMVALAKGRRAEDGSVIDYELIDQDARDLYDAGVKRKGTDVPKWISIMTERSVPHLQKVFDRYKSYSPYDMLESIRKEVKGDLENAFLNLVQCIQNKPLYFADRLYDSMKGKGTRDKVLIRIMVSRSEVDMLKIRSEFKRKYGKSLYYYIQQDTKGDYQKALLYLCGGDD

B1: SopD2-2HA (natural protein)
chain: MPVTLSFGNRHNYEINHSRLARLMSPDKEEALYMGVWDRFKDCFRTHKKQEVLEVLYTLIHGCERENQAELNVDITGMEKIHAFTQLKEYANPSQQDRFVMRFDMNQTQVLFEIDGKVIDKCNLHRLLNVSENCIFKVMEEDEEELFLKICIKYGEKISRYPELLEGFANKLKDAVNEDDDVKDEVYKLMRSGEDRKMECVEWNGTLTEEEKNKLRCLQMGSFNITTQFFKIGYWELEGEVLFDMVHPTLSYLLQAYKPSLSSDLIETNTMLFSDVLNKDYDDYQNNKREIDAILRRIYRSHNNTLFISEKSSCRNMLI
notes: SopD2, T3SS2-secreted effector of Salmonella enterica serovar Typhimurium SL1344, under its native promoter in pACYC184; also called pSopD2-2HA; source: S. Typhimurium SL1344 T3SS2+ ΔsopD2 carrying pSopD2-2HA: translocated into infected HeLa cells, in lysate; secreted under SPI-2 inducing conditions (LPM pH 5.8), concentrated culture supernatant; not shown: 2xHA (tandem HA), C-terminal, kept
fold change of effector pulled down with AnxA2 over without AnxA2: 12.3 fold
